Reference: patent US20200399391A1 (Sanofi, published 2020)

Key:
[1] = biological target: T1, FcγRIIa 131H expressed on HEK cells (human, UniProt P12318 34-317); assay: flow cytometry on HEK293T cells expressing the receptor, FITC anti-human IgG; mean Kd
T1 sequence: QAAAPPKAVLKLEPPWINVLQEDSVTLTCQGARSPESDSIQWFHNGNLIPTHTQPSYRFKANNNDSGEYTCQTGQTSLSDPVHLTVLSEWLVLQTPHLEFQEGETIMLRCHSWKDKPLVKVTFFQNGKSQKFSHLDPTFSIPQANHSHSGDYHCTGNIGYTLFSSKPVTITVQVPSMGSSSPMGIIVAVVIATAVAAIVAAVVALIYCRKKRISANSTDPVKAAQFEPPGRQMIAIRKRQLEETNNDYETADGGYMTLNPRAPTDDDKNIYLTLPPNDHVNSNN

[2] = biological target: T2, FcγRIIIa 158V expressed on cells (human, UniProt P08637 17-254); assay: flow cytometry on HEK293T cells expressing the receptor
T2 construct: also called HEK293T-FcγRIIIa-158V; FcγRIIIa (CD16a) 158V

[3] = biological target: T1, FcγRIIa 131H expressed on HEK cells; assay: as above
[4] = biological target: T3, FcγRIIb expressed on HEK cells (UniProt P31994 43-310, limits assumed); assay: flow cytometry on HEK293T cells expressing the receptor, FITC anti-human IgG; mean Kd
T3 construct: whole, on cells; also called HEK293T-FcγRIIb
T3 sequence (looked up): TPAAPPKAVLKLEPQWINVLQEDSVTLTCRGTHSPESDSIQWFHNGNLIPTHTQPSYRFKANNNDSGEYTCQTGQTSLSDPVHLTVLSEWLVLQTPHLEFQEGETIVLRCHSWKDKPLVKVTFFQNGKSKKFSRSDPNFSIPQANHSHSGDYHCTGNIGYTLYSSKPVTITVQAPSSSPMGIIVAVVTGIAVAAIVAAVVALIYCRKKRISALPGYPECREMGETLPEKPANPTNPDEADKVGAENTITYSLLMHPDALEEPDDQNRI

[5] = biological target: T4, FcγRI expressed on HEK cells (UniProt P12314 16-374, limits assumed); assay: as above
T4 construct: whole, on cells; also called HEK293T-FcγRI

[6] = biological target: T2, FcγRIIIa 158V expressed on cells; assay: flow cytometry on HEK293T cells expressing the receptor, FITC anti-human IgG; mean apparent Kd
[7] = biological target: T2, FcγRIIIa 158V expressed on cells; assay: cell-based or functional assay
[8] = biological target: T5, FcγRIIIa (CD16a) extracellular domain with V158, C-terminal histag (human, UniProt P08637 17-208); assay: SPR (BIAcore 2000), FcγRIIIa-histag captured on anti-His IgG, mAb 8-256 nM, two-state fit
T5 construct: also called FcγRIIIa 158V; FcγRIIIa-histag; not shown: C-terminal histag

[9] = biological target: T6, FcγRIIa extracellular domain with H131, histag (Biorbyt, batch ORB138408) (human, UniProt P12318 34-217); assay: AlphaScreen competition (relative IC50): untagged mAb displaces biotinylated anti-CD38 native IgG1 from FcγRIIa-histag
T6 construct: Bought protein; also called FcγRIIa H131; not shown: histag
T6 sequence: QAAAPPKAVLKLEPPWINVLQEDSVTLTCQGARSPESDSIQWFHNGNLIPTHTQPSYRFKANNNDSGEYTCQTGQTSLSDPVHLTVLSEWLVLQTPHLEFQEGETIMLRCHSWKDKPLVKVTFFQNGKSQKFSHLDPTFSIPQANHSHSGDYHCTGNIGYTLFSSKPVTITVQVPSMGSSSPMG

[10] = biological target: T2, FcγRIIIa 158V expressed on cells; assay: cell-based or functional assay; remark: listed apart in the source
[11] = biological target: T3, FcγRIIb expressed on HEK cells; assay: flow cytometry on HEK293T cells expressing the receptor
[12] = biological target: T4, FcγRI expressed on HEK cells; assay: as above
[13] = biological target: T2, FcγRIIIa 158V expressed on cells; assay: cell-based or functional assay; remark: listed apart in the source
[14] = biological target: T3, FcγRIIb expressed on HEK cells; assay: flow cytometry on HEK293T cells expressing the receptor; the text calls it fold lower affinity
[15] = biological target: T5, FcγRIIIa (CD16a) extracellular domain …; assay: SPR, against mAb 1
human CD38 [16] = biological target: T7, human CD38 (human, UniProt P28907 43-300, limits assumed); assay: SPR (Biacore), mAb captured on anti-Fc chip, after thermal stress of the mAb (14 days at 40 C); n = 3
T7 construct: Soluble analyte in SPR; the construct (limits, tags) is not described; also called huCD38

human CD38 [17] = biological target: T7, human CD38; assay: SPR (Biacore), mAb captured on anti-Fc CM5 chip, huCD38 injected; n = 3

| Binder | Kd [1] | Fold difference in affinity versus mAb 1 [2] | difference in affinity versus mAb 1 [3] | Kd [5] | Kd [6] | ADCC of KMS-12BM cells, EC50 (calcein release) [7] | Kd [8] | IC50 [9] | ADCC of MOLP-8 cells, EC50 (calcein release) [10] | difference in affinity versus mAb 1 [12] | ADCC of RPMI-8226 cells, EC50 (calcein release) [13] | Kd (human CD38 [16]) | koff (human CD38 [16]) | kon (human CD38 [16]) | Kd (human CD38 [17]) | koff (human CD38 [17]) | kon (human CD38 [17]) | also measured |
| --- | --- | --- | --- | --- | --- | --- | --- | --- | --- | --- | --- | --- | --- | --- | --- | --- | --- | --- |
| mAb 1 (antibody, human IgG1, kappa, also called HEAVY CHAIN 1 / LIGHT CHAIN 1) heavy: not shown light: DIVMTQSHLSMSTSLGDPVSITCKASQDVSTVVAWYQQKPGQSPRRLIYSASYRYIGVPDRFTGSGAGTDFTFTISSVQAEDLAVYYCQQHYSPPYTFGGGTKLEIKRTVAAPSVFIFPPSDEQLKSGTASVVCLLNNFYPREAKVQWKVDNALQSGNSQESVTEQDSKDSTYSLSSTLTLSKADYEKHKVYACEVTHQGLSSPVTKSFNRGEC | 1180 nM | 1 fold | 1 fold | 24.2 nM | 165 nM | 41 ng/mL | 425 nM | 268 nM | 3.3 ng/mL | 1 fold | 2.45 ng/mL |  |  |  |  |  |  | Kd [4]: 1300 nM; difference in affinity versus mAb 1 [11]: 1 fold |
| mAb 2 (antibody, human IgG1, kappa, also called HEAVY CHAIN 2 / LIGHT CHAIN 1) heavy: not shown light: DIVMTQSHLSMSTSLGDPVSITCKASQDVSTVVAWYQQKPGQSPRRLIYSASYRYIGVPDRFTGSGAGTDFTFTISSVQAEDLAVYYCQQHYSPPYTFGGGTKLEIKRTVAAPSVFIFPPSDEQLKSGTASVVCLLNNFYPREAKVQWKVDNALQSGNSQESVTEQDSKDSTYSLSSTLTLSKADYEKHKVYACEVTHQGLSSPVTKSFNRGEC | 840 nM | 9.4 fold | 1.4 fold | 13.5 nM | 17.6 nM | 0.65 ng/mL | 47 nM | 119 nM | 0.1 ng/mL | 1.8 fold | 0.09 ng/mL |  |  |  |  |  |  | difference in affinity versus mAb 1 [14]: 3.9 fold; fold higher affinity than mAb 1 [15]: 9 fold |
| mAb 4 (antibody, human IgG1, kappa, also called HEAVY CHAIN 4 / LIGHT CHAIN 1) heavy: QVQLVQSGAEVAKPGTSVKLSCKASGYTFTDYWMQWVKQRPGQGLEWIGTIYPGDGDTGYAQKFQGKATLTADKSSKTVYMHLSSLASEDSAVYYCARGDYYGSNSLDYWGQGTSVTVSSASTKGPSVFPLAPSSKSTSGGTAALGCLVKDYFPEPVTVSWNSGALTSGVHTFPAVLQSSGLYSLSSVVTVPSSSLGTQTYICNVNHKPSNTKVDKKVEPKSCDKTHTCPPCPAPELLAGPDVFLFPPKPKDTLMISRTPEVTCVVVDVSHEDPEVKFNWYVDGVEVHNAKTKPREEQYNSTYRVVSVLTVLHQDWLNGKEYKCKVSNKALPLPEEKTISKAKGQPREPQVYTLPPSRDELTKNQVSLTCLVKGFYPSDIAVEWESNGQPENNYKTTPPVLDSDGSFFLYSKLTVDKSRWQQGNVFSCSVMHEALHNHYTQKSLSLSPG light: DIVMTQSHLSMSTSLGDPVSITCKASQDVSTVVAWYQQKPGQSPRRLIYSASYRYIGVPDRFTGSGAGTDFTFTISSVQAEDLAVYYCQQHYSPPYTFGGGTKLEIKRTVAAPSVFIFPPSDEQLKSGTASVVCLLNNFYPREAKVQWKVDNALQSGNSQESVTEQDSKDSTYSLSSTLTLSKADYEKHKVYACEVTHQGLSSPVTKSFNRGEC | 544 nM | 5.9 fold | 2.2 fold | 15.9 nM | 28.1 nM | 0.45 ng/mL | 47 nM | 58 nM | 0.12 ng/mL | 1.5 fold | 0.09 ng/mL |  |  |  |  |  |  | Kd [4]: 544 nM; difference in affinity versus mAb 1 [14]: 1.8 fold; fold higher affinity than mAb 1 [15]: 9 fold |
| mAb 5 (antibody, human IgG1, kappa, V domains shown, Humanized heavy and light chains with engineered Fc; also called anti-CD38 mAb 5; HEAVY CHAIN 5 / LIGHT CHAIN 2) VH: QVQLVQSGAEVAKPGASVKVSCKASGYTFTDYWMQWVRQAPGQGLEWIGTIYPGDGDTSYAQKFQGRVTMTADTSTSTVYMELSSLRSEDTAVYYCARGDYYGSNSLDYWGQGTLVTVSS VL: DIVMTQSPDSLAVSLGERATINCKSSQDVSTVLAWYQQKPGQSPRRLIYSASYRYIGVPDRFSGSGSGTDFTLTISSLQAEDVAVYYCQQHYSPPYTFGGGTKLEIKR |  |  |  |  |  |  |  |  |  |  |  | 0.828 nM | 0.00236 s⁻¹ | 2.95e+06 M⁻¹ s⁻¹ | 0.699 nM | 0.00188 s⁻¹ | 2.78e+06 M⁻¹ s⁻¹ |  |
| mAb 6 (antibody, human IgG1, kappa, V domains shown, Humanized heavy and light chains with engineered Fc; also called anti-CD38 mAb 6; HEAVY CHAIN 5 / LIGHT CHAIN 3) VH: QVQLVQSGAEVAKPGASVKVSCKASGYTFTDYWMQWVRQAPGQGLEWIGTIYPGDGDTSYAQKFQGRVTMTADTSTSTVYMELSSLRSEDTAVYYCARGDYYGSNSLDYWGQGTLVTVSS VL: DIVMTQSPDSLAVSLGERATINCKSSQDVSTVVAWYQQKPGQSPRRLIYSASYRYIGVPDRFSGSGSGTDFTFTISSLQAEDVAVYYCQQHYSPPYTFGGGTKLEIKR |  |  |  |  |  |  |  |  |  |  |  | 0.346 nM | 0.00128 s⁻¹ | 3.86e+06 M⁻¹ s⁻¹ | 0.385 nM | ~0.00119 s⁻¹ | 3.1e+06 M⁻¹ s⁻¹ |  |
| mAb 8 (antibody, human IgG1, kappa, V domains shown, Humanized heavy and light chains with engineered Fc; also called anti-CD38 mAb 8; HEAVY CHAIN 6 / LIGHT CHAIN 3) VH: QVQLVQSGAEVAKPGASVKVSCKASGYTFTDYWMQWVKQRPGQGLEWIGTIYPGDGDTGYAQKFQGRVTMTADKSTSTVYMELSSLRSEDTAVYYCARGDYYGSNSLDYWGQGTLVTVSS VL: DIVMTQSPDSLAVSLGERATINCKSSQDVSTVVAWYQQKPGQSPRRLIYSASYRYIGVPDRFSGSGSGTDFTFTISSLQAEDVAVYYCQQHYSPPYTFGGGTKLEIKR |  |  |  |  |  |  |  |  |  |  |  | 0.198 nM | 0.000663 s⁻¹ | 3.53e+06 M⁻¹ s⁻¹ | 0.191 nM | 0.00065 s⁻¹ | 3.51e+06 M⁻¹ s⁻¹ |  |
| mAb 7 (antibody, human IgG1, kappa, V domains shown, Humanized heavy and light chains with engineered Fc; also called anti-CD38 mAb 7; HEAVY CHAIN 6 / LIGHT CHAIN 2) VH: QVQLVQSGAEVAKPGASVKVSCKASGYTFTDYWMQWVKQRPGQGLEWIGTIYPGDGDTGYAQKFQGRVTMTADKSTSTVYMELSSLRSEDTAVYYCARGDYYGSNSLDYWGQGTLVTVSS VL: DIVMTQSPDSLAVSLGERATINCKSSQDVSTVLAWYQQKPGQSPRRLIYSASYRYIGVPDRFSGSGSGTDFTLTISSLQAEDVAVYYCQQHYSPPYTFGGGTKLEIKR |  |  |  |  |  |  |  |  |  |  |  | 0.394 nM | 0.00133 s⁻¹ | 3.39e+06 M⁻¹ s⁻¹ | 0.415 nM | 0.0013 s⁻¹ | 3.18e+06 M⁻¹ s⁻¹ |  |
